Key:
[1] = target: human CD33 on cells (human, UniProt P20138 18-364); assay: cell-based or functional assay
[2] = target: T1, human CD7 on cells (human, UniProt P09564 26-240); assay: cell-based or functional assay
T1 sequence (looked up): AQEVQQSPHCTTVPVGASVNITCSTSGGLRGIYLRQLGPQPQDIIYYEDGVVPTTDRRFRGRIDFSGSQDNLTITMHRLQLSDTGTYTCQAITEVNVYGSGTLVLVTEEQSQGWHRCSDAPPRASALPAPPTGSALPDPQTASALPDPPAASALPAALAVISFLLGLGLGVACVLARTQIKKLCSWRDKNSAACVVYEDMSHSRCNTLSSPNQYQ

Chain of human CD33 on cells (P20138 18-364): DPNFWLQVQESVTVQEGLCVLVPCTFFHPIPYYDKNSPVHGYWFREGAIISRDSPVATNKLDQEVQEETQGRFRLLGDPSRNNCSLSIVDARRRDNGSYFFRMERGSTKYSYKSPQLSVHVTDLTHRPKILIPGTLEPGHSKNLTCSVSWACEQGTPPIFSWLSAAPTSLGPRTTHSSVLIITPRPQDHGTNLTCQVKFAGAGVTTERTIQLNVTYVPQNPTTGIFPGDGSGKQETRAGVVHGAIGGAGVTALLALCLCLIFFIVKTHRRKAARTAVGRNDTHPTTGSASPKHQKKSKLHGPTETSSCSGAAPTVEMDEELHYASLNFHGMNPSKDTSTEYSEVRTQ

B1: BVX100-MMAE (bispecific antibody)
heavy: QVQLQESGAELVKPGASVKLSCKASGYTFTSYWMHWVKQRPGQGLEWIGKINPSNGRTNYNEKFKSKATLTVDKSSSTAYMQLSSLTSEDSAVYYCARGGVYYDLYYYALDYWGQGTTVTVSSASTKGPSVFPLAPSSKSTSGGTAALGCLVKDYFPEPVTVSWNSGALTSGVHTFPAVLQSSGLYSLSSVVTVPSSSLGTQTYCCNVNHKPSNTKVDKKVEPKSCDKT
light: DIELTQSPATLSVTPGDSVSLSCRASQSISNNLHWYQQKSHESPRLLIKSASQSISGIPSRFSGSGSGTDFTLSINSVETEDFGMYFCQQSNSWPYTFGGGTKLEIKRTVAAPSVFIFPPSDEQLKSGTASVVCLLNNFYPREAKVQWKVDNALQSGNSQESVTEQDSKDSTYSLSSTLTLSKADYEKHKVYACEVTHQGLSSPVTKSFNRGEC
VH: EVQLVQSGAEVKKPGSSVKVSCKASGYTITDSNIHWVRQAPGQSLEWIGYIYPYNGGTDYNQKFKNRATLTVDNPTNTAYMELSSLRSEDTAFYYCVNGNPWLAYWGQGTLVTVSS
VL: DIQLTQSPSTLSASVGDRVTIICRASESLDNYGIRFLTWFQQKPGKAPKLLMYAASNQGSGVPSRFSGSGSGTEFTLTISSLQPDDFATYYCQQTKEVPWSFGQGTKLEIK
B1 was tested, and the “EC50 (nM), cytotoxicity (MTS, 96 h) on MV4.11 cells (CD7-/CD33+)” value (shortened to “EC50 (nM) … on MV4.11 cells (CD7-/CD33+)”) [1] was 10.8 nM, the “EC50 (nM), cytotoxicity (MTS, 96 h) on SHI-1 cells (CD7-/CD33+)” value (“EC50 (nM) … on SHI-1 cells (CD7-/CD33+)” below) [1] was 2.26 nM and the “EC50 (nM), cytotoxicity (MTS, 96 h) on Jurkat cells (CD7+/CD33-)” value (“EC50 (nM), cytotoxicity … (CD7+/CD33-)” for short) [2] was 0.92 nM.

B2: BVX120-MMAE (bispecific antibody)
heavy: QVQLQESGAELVKPGASVKLSCKASGYTFTSYWMHWVKQRPGQGLEWIGKINPSNGKTNYNEKFKSKATLTVDKSSSTAYMQLSSLTSEDSAVYYCARGGVYYDLYYYALDYWGQGTTVTVSSASTKGPSVFPLAPSSKSTSGGTAALGCLVKDYFPEPVTVSWNSGALTSGVHTFPAVLQSSGLYSLSSVVTVPSSSLGTQTYCCNVNHKPSNTKVDKKVEPKSCDKT
light: DIELTQSPATLSVTPGDSVSLSCRASQSISNNLHWYQQKSHESPRLLIKSASQSISGIPSRFSGSGSGTDFTLSINSVETEDFGMYFCQQSNSWPYTFGGGTKLEIKRTVAAPSVFIFPPSDEQLKSGTASVVCLLNNFYPREAKVQWKVDNALQSGNSQESVTEQDSKDSTYSLSSTLTLSKADYEKHKVYACEVTHQGLSSPVTKSFNRGEC
VH: EVQLVQSGAEVKKPGSSVKVSCKASGYTITDSNIHWVRQAPGQSLEWIGYIYPYNGGTDYNQKFKNRATLTVDNPTNTAYMELSSLRSEDTAFYYCVNGNPWLAYWGQGTLVTVSS
VL: DIQLTQSPSTLSASVGDRVTIICRASESLDNYGIRFLTWFQQKPGKAPKLLMYAASNQGSGVPSRFSGSGSGTEFTLTISSLQPDDFATYYCQQTKEVPWSFGQGTKLEIK
With B2 the “EC50 (nM) … on MV4.11 cells (CD7-/CD33+)” value [1] was 16.5 nM, the “EC50 (nM) … on SHI-1 cells (CD7-/CD33+)” value [1] was 7.21 nM and the “EC50 (nM), cytotoxicity … (CD7+/CD33-)” value [2] was 1.52 nM.

B3: BVX110-MMAE (bispecific antibody)
heavy: QVQLQESGAELVKPGASVKLSCKASGYTFTSYWMHWVKQRPGQGLEWIGKINPSNGGTNYNEKFKSKATLTVDKSSSTAYMQLSSLTSEDSAVYYCARGGVYYDLYYYALDYWGQGTTVTVSSASTKGPSVFPLAPSSKSTSGGTAALGCLVKDYFPEPVTVSWNSGALTSGVHTFPAVLQSSGLYSLSSVVTVPSSSLGTQTYCCNVNHKPSNTKVDKKVEPKSCDKT
light: DIELTQSPATLSVTPGDSVSLSCRASQSISNNLHWYQQKSHESPRLLIKSASQSISGIPSRFSGSGSGTDFTLSINSVETEDFGMYFCQQSNSWPYTFGGGTKLEIKRTVAAPSVFIFPPSDEQLKSGTASVVCLLNNFYPREAKVQWKVDNALQSGNSQESVTEQDSKDSTYSLSSTLTLSKADYEKHKVYACEVTHQGLSSPVTKSFNRGEC
VH: EVQLVQSGAEVKKPGSSVKVSCKASGYTITDSNIHWVRQAPGQSLEWIGYIYPYNGGTDYNQKFKNRATLTVDNPTNTAYMELSSLRSEDTAFYYCVNGNPWLAYWGQGTLVTVSS
VL: DIQLTQSPSTLSASVGDRVTIICRASESLDNYGIRFLTWFQQKPGKAPKLLMYAASNQGSGVPSRFSGSGSGTEFTLTISSLQPDDFATYYCQQTKEVPWSFGQGTKLEIK
With B3 the “EC50 (nM) … on MV4.11 cells (CD7-/CD33+)” value [1] was 27 nM, the “EC50 (nM) … on SHI-1 cells (CD7-/CD33+)” value [1] was 11.4 nM and the “EC50 (nM), cytotoxicity … (CD7+/CD33-)” value [2] was 4.52 nM.

B4: BVX140-MMAE (bispecific antibody)
heavy: QVQLQESGAELVKPGASVKLSCKASGYTFTSYWMHWVKQRPGQGLEWIGKINPSNGGTNYNEKFKSKATLTVDKSSSTAYMQLSSLTSEDSAVYYCARGGVYYDLYYAALDYWGQGTTVTVSSASTKGPSVFPLAPSSKSTSGGTAALGCLVKDYFPEPVTVSWNSGALTSGVHTFPAVLQSSGLYSLSSVVTVPSSSLGTQTYCCNVNHKPSNTKVDKKVEPKSCDKT
light: DIELTQSPATLSVTPGDSVSLSCRASQSISNNLHWYQQKSHESPRLLIKSASQSISGIPSRFSGSGSGTDFTLSINSVETEDFGMYFCQQSNSWPYTFGGGTKLEIKRTVAAPSVFIFPPSDEQLKSGTASVVCLLNNFYPREAKVQWKVDNALQSGNSQESVTEQDSKDSTYSLSSTLTLSKADYEKHKVYACEVTHQGLSSPVTKSFNRGEC
VH: EVQLVQSGAEVKKPGSSVKVSCKASGYTITDSNIHWVRQAPGQSLEWIGYIYPYNGGTDYNQKFKNRATLTVDNPTNTAYMELSSLRSEDTAFYYCVNGNPWLAYWGQGTLVTVSS
VL: DIQLTQSPSTLSASVGDRVTIICRASESLDNYGIRFLTWFQQKPGKAPKLLMYAASNQGSGVPSRFSGSGSGTEFTLTISSLQPDDFATYYCQQTKEVPWSFGQGTKLEIK
With B4 the “EC50 (nM), cytotoxicity … (CD7+/CD33-)” value [2] was 22.8 nM.

B5: BVX130-MMAE (bispecific antibody)
heavy: QVQLQESGAELVKPGASVKLSCKASGYTFTSYWMHWVKQRPGQGLEWIGKINPSNGRTNYNEKFKSKATLTVDKSSSTAYMQLSSLTSEDSAVYYCARGGVYYALYYYALDYWGQGTTVTVSSASTKGPSVFPLAPSSKSTSGGTAALGCLVKDYFPEPVTVSWNSGALTSGVHTFPAVLQSSGLYSLSSVVTVPSSSLGTQTYCCNVNHKPSNTKVDKKVEPKSCDKT
light: DIELTQSPATLSVTPGDSVSLSCRASQSISNNLHWYQQKSHESPRLLIKSASQSISGIPSRFSGSGSGTDFTLSINSVETEDFGMYFCQQSNSWPYTFGGGTKLEIKRTVAAPSVFIFPPSDEQLKSGTASVVCLLNNFYPREAKVQWKVDNALQSGNSQESVTEQDSKDSTYSLSSTLTLSKADYEKHKVYACEVTHQGLSSPVTKSFNRGEC
VH: EVQLVQSGAEVKKPGSSVKVSCKASGYTITDSNIHWVRQAPGQSLEWIGYIYPYNGGTDYNQKFKNRATLTVDNPTNTAYMELSSLRSEDTAFYYCVNGNPWLAYWGQGTLVTVSS
VL: DIQLTQSPSTLSASVGDRVTIICRASESLDNYGIRFLTWFQQKPGKAPKLLMYAASNQGSGVPSRFSGSGSGTEFTLTISSLQPDDFATYYCQQTKEVPWSFGQGTKLEIK
For B5, the “EC50 (nM) … on MV4.11 cells (CD7-/CD33+)” value [1] was 24.1 nM, the “EC50 (nM) … on SHI-1 cells (CD7-/CD33+)” value [1] was 17.5 nM and the “EC50 (nM), cytotoxicity … (CD7+/CD33-)” value [2] was 5.83 nM.

B6: BVX160-MMAE (bispecific antibody)
heavy: QVQLQESGAELVKPGASVKLSCKASGYTFTSYWMHWVKQRPGQGLEWIGKINPSNGRTNYNEKFKSKATLTVDKSSSTAYMQLSSLTSEDSAVYYCARGGVYYDLYYAALDYWGQGTTVTVSSASTKGPSVFPLAPSSKSTSGGTAALGCLVKDYFPEPVTVSWNSGALTSGVHTFPAVLQSSGLYSLSSVVTVPSSSLGTQTYCCNVNHKPSNTKVDKKVEPKSCDKT
light: DIELTQSPATLSVTPGDSVSLSCRASQSISNNLHWYQQKSHESPRLLIKSASQSISGIPSRFSGSGSGTDFTLSINSVETEDFGMYFCQQSNSWPYTFGGGTKLEIKRTVAAPSVFIFPPSDEQLKSGTASVVCLLNNFYPREAKVQWKVDNALQSGNSQESVTEQDSKDSTYSLSSTLTLSKADYEKHKVYACEVTHQGLSSPVTKSFNRGEC
VH: EVQLVQSGAEVKKPGSSVKVSCKASGYTITDSNIHWVRQAPGQSLEWIGYIYPYNGGTDYNQKFKNRATLTVDNPTNTAYMELSSLRSEDTAFYYCVNGNPWLAYWGQGTLVTVSS
VL: DIQLTQSPSTLSASVGDRVTIICRASESLDNYGIRFLTWFQQKPGKAPKLLMYAASNQGSGVPSRFSGSGSGTEFTLTISSLQPDDFATYYCQQTKEVPWSFGQGTKLEIK
With B6 the “EC50 (nM), cytotoxicity … (CD7+/CD33-)” value [2] was 7.31 nM.

B7: BVX150-MMAE (bispecific antibody)
heavy: QVQLQESGAELVKPGASVKLSCKASGYTFTSYWMHWVKQRPGQGLEWIGKINPSNGKTNYNEKFKSKATLTVDKSSSTAYMQLSSLTSEDSAVYYCARGGVYYDLYYAALDYWGQGTTVTVSSASTKGPSVFPLAPSSKSTSGGTAALGCLVKDYFPEPVTVSWNSGALTSGVHTFPAVLQSSGLYSLSSVVTVPSSSLGTQTYCCNVNHKPSNTKVDKKVEPKSCDKT
light: DIELTQSPATLSVTPGDSVSLSCRASQSISNNLHWYQQKSHESPRLLIKSASQSISGIPSRFSGSGSGTDFTLSINSVETEDFGMYFCQQSNSWPYTFGGGTKLEIKRTVAAPSVFIFPPSDEQLKSGTASVVCLLNNFYPREAKVQWKVDNALQSGNSQESVTEQDSKDSTYSLSSTLTLSKADYEKHKVYACEVTHQGLSSPVTKSFNRGEC
VH: EVQLVQSGAEVKKPGSSVKVSCKASGYTITDSNIHWVRQAPGQSLEWIGYIYPYNGGTDYNQKFKNRATLTVDNPTNTAYMELSSLRSEDTAFYYCVNGNPWLAYWGQGTLVTVSS
VL: DIQLTQSPSTLSASVGDRVTIICRASESLDNYGIRFLTWFQQKPGKAPKLLMYAASNQGSGVPSRFSGSGSGTEFTLTISSLQPDDFATYYCQQTKEVPWSFGQGTKLEIK
In the case of B7, the “EC50 (nM) … on MV4.11 cells (CD7-/CD33+)” value [1] is reported as 9.19 nM, the “EC50 (nM) … on SHI-1 cells (CD7-/CD33+)” value [1] is reported as 5.23 nM and the “EC50 (nM), cytotoxicity … (CD7+/CD33-)” value [2] is reported as 1.6 nM.
